Assay results taken from patent US20210070843A1.

Experiments:
[1] = target: full-length H1 A/California/07/2009 HA expressed on 293T cells (influenza A virus A/California/07/2009 (H1N1)); assay: cell-based or functional assay
[2] = target: full-length H5 A/Vietnam/1203/2004 HA expressed on 293T cells (influenza A virus A/Vietnam/1203/2004 (H5N1)); assay: cell-based or functional assay
[3] = target: H7 A/Anhui/1-BALF_RG17/2013 HA on H7N9 AH/13 pseudo virus (influenza A virus A/Anhui/1-BALF_RG17/2013 (H7N9)); assay: cell-based or functional assay
[4] = target: full-length H1 A/California/07/2009 HA expressed on 293T cells (influenza A virus A/California/07/2009 (H1N1)); assay: flow cytometry, HA-expressing 293T
[5] = target: full-length H5 A/Vietnam/1203/2004 HA expressed on 293T cells (influenza A virus A/Vietnam/1203/2004 (H5N1)); assay: flow cytometry, HA-expressing 293T
[6] = target: cell surface-expressed H3N2 WN/05 HA trimer (influenza A virus A/Wisconsin/67/2005 (H3N2)); assay: flow cytometry, HA-expressing 293T
[7] = target: recombinant H1N1 CA/09 HA trimer (hemagglutinin ectodomain of A/California/07/2009) (influenza A virus A/California/07/2009 (H1N1)); assay: ELISA, coated HA
[8] = target: recombinant H5N1 VN/04 HA trimer (hemagglutinin ectodomain of A/Vietnam/1203/2004) (influenza A virus A/Vietnam/1203/2004 (H5N1)); assay: ELISA, coated HA
[9] = target: recombinant H3N2 WN/05 HA trimer (hemagglutinin ectodomain of A/Wisconsin/67/2005) (influenza A virus A/Wisconsin/67/2005 (H3N2)); assay: ELISA, coated HA
[10] = target: cell surface-expressed H3N2 WN/05 HA trimer (influenza A virus A/Wisconsin/67/2005 (H3N2)); assay: cell-based or functional assay
[11] = target: recombinant H7N9 AH/13 HA trimer (hemagglutinin ectodomain of A/Anhui/1-BALF_RG17/2013) (influenza A virus A/Anhui/1-BALF_RG17/2013 (H7N9)); assay: ELISA, coated HA

Molecule | IC50 of pseudo virus neutralization H1N1 CA/09 [1] [µg/mL] | IC50 of true virus neutralization H1N1 CA/09 [1] [µg/mL] | IC50 of pseudo virus neutralization H5N1 VN/04 [2] [µg/mL] | IC50 of pseudo virus neutralization H7N9 AH/13 [3] [µg/mL] | EC50 [4] [µg/mL] | max. MFI [4] [MFI] | max. MFI [5] [MFI] | max. MFI [6] [MFI] | EC50 [7] [µg/mL] | EC50 [8] [µg/mL] | EC50 [9] [µg/mL] | IC50 of pseudo virus neutralization H3N2 WN/05 [10] [µg/mL] | EC50 [6] [µg/mL] | EC50 [11] [µg/mL]
F10 (antibody) | 0.0119 | 1.26 | 0.012 | > 200 | 1.05 | 9530 | 10500 | 220 | 0.0121 | 0.021 |  |  |  | 
C05 (antibody) |  |  |  |  |  |  |  |  |  |  | 0.00844 |  |  | 
CR8020 (antibody) | > 100 | > 500 | > 200 | 0.052 |  | 91 | 639 | 18000 |  |  | 0.0194 | 0.0477 | 0.569 | 
FI6V3 (antibody) | 0.0213 | 9.21 | 0.013 | 0.051 | 0.067 | 10100 | 13700 | 16600 | 0.0107 | 0.00648 | 0.0789 |  | 0.065 | 0.314
P44 (antibody, V domains shown) VH: EVQLVESGGGLVQPGGSLRLSCAASGFTIDGWWIHWVRQAPGKGLEWVAGIWPFGGFTSYADSVKGRFTISADTSKNTAYLQMNSLRAEDTAVYYCARSYSGYSGDYWGQGTLVTVSS VL: DIQMTQSPSSLSASVGDRVTITCRASQDVNNNVAWYQQKPGKAPKLLIYWSSSLYSGVPSRFSGSGSGTDFTLTISSLQPEDFATYYCQQYYNFPVTFGQGTKVEIKR | > 100 | > 500 | > 200 | > 200 | 0.466 | 8480 | 188 | 127 |  | 0.1 |  | > 20 |  | 0.163
